The record followed here is patent US20010029022A1 (PHARMACIA AND UPJOHN, published 2001).

Sequences and labels used below:
B1: His-p21C (other)
chain: GLPKLYLPTGPRRGRDELGGGRRPGTSPALLQGTAEEDHVDLSLSCTLVPRSGEQAEGSPGGPGDSQGRKRRQTSMTDFYHSKRRLIFSKRKP
notes: range 72-164; also called carboxy terminal residues 72-164 of p21; not shown: poly-histidine tag from vector pET15b
B2: GST-HPV16 E7 (other)
chain: MHGDTPTLHEYMLDLQPETTDLYCYEQLNDSSEEEDEIDGPAGQAEPDRAHYNIVTFCCKCDSTLRLCVQSTHVDIRTLEDLLMGTLGIVCPICSQKP
notes: range 1-98; GST fusion from pGEX-4T-3; also called GST-16E7; full length GST-HPV 16 E7; not shown: glutathione-S-transferase (GST) moiety of vector pGEX-4T-3, at the amino-terminus
B3: GST-HPV31 E7 (other)
chain: MRGETPTLQDYVLDLQPEATDLHCYEQLPDSSDEEDVIDSPAGQAEPDTSNYNIVTFCCQCKSTLRLCVQSTQVDIRILQELLMGSFGIVCPNCSTRL
notes: GST fusion from pGEX-4T-3; also called GST-31E7; not shown: glutathione-S-transferase (GST) moiety of vector pGEX-4T-3, at the amino-terminus

The experiment “GST-HPV16 E7” has as its target B2. Nature of the experiment: GST pull-down on glutathione-agarose beads, SDS-PAGE, Coomassie blue and Western blot.
In the experiment “GST-HPV31 E7” the target is B3. Described as above.
The target of the next experiment is cyclin A/CDK2 complex (UniProt P20248 1-432; P24941 1-298). Put plainly: cell-based or functional assay.
cyclin A/CDK2 complex, sequence (P20248 whole entry, one chain of several): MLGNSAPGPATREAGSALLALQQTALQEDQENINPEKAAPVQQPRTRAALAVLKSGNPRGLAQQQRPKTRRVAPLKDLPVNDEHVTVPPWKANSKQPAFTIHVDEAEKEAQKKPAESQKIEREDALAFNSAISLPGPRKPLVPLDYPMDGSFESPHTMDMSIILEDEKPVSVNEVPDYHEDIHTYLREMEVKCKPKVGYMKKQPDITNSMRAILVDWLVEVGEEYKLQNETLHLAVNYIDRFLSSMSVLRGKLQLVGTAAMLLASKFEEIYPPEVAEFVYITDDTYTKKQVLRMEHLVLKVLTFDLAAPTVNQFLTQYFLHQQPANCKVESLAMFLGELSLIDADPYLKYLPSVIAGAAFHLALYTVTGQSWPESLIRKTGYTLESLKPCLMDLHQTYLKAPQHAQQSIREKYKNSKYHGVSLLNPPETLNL
Experiment [1] addresses CDK2 kinase complex (cyclin not given) (UniProt P24941 1-298). Put plainly: cell-based or functional assay.
The next experiment deals with T1, His-p27N (human, UniProt P46527 1-101).
T1 construct: range 1-101; also called amino terminal residues 1-101 from p27; not shown: poly-histidine tag from the expression vector
T1 sequence (P46527 1-101): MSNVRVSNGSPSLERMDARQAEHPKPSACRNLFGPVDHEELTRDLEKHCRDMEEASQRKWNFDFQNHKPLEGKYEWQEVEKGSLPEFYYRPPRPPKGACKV
Put plainly: GST pull-down on glutathione-agarose beads, SDS-PAGE, Coomassie blue and Western blot.

The next experiment has as its target T2, His-p27C (human, UniProt P46527 95-198).
T2 construct: range 95-198; also called carboxy terminal residues 95-198 of p27; not shown: poly-histidine tag from the expression vector
The experiment is described as above.

T2 sequence (P46527 95-198): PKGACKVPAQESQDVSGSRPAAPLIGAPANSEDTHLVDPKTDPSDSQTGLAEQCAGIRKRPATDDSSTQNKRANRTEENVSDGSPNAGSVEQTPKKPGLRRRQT

On to B1, for which the binding result in the experiment with GST-HPV16 E7 and with GST-HPV31 E7 was “no binding” throughout.

Regarding B2, the “cyclinA/CDK2 histone H1 kinase activity (PhosphorImager)” value in the experiment with cyclin A/CDK2 complex worked out at 26 fold. In addition, the “CDK2 histone kinase activity, fold activation” value in experiment [1] was found to be 18.2 fold. For the same molecule, the binding result with His-p27N and with His-p27C was “no binding” in each case.

For the molecule B3, the “CDK2 histone kinase activity, fold activation” value in experiment [1] is 12.6 fold. Also, the binding result with His-p27N and in the experiment with His-p27C was “no binding” throughout.
